Data set [1] has as its target T1, tsH042' Phi29 DNA polymerase (K143S, sso7d fusion) (Bacillus phage phi29?) (UniProt P03680).
T1 sequence: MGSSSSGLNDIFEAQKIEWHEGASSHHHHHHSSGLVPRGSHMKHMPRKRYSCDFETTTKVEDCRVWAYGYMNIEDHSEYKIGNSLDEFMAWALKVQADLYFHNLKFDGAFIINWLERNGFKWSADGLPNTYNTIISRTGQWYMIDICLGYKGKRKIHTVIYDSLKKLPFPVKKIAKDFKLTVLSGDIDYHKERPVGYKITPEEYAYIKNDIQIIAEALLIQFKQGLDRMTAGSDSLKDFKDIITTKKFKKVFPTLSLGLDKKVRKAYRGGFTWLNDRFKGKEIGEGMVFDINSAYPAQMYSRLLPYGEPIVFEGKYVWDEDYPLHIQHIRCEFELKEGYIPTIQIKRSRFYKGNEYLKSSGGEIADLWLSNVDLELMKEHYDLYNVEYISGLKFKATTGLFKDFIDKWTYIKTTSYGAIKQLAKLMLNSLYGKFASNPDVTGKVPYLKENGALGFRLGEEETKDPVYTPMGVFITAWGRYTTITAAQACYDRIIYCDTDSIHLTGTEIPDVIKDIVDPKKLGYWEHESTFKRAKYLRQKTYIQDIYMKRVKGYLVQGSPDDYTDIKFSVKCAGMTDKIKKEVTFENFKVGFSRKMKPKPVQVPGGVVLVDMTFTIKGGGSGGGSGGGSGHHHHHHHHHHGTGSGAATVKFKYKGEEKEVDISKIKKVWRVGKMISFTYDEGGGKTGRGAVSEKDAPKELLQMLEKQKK
Conditions: template aligned length, single molecule sequencing.

In data set [2] the target is T2, tsH034' Phi29 DNA polymerase (K143D, sso7d fusion) (Bacillus phage phi29?) (UniProt P03680).
T2 sequence: T1 sequence with S184D
Conditions: template aligned length, single molecule sequencing.

For data set [3], the target named is T3, tsH039' Phi29 DNA polymerase (Y148L, sso7d fusion) (Bacillus phage phi29?) (UniProt P03680).
T3 sequence: T1 sequence with S184K, Y189L
The following applies: template aligned length, single molecule sequencing.

For data set [4], the system named is H020 Phi29 DNA polymerase Y224K,E239G,V250I,L253A,E375S,A437G,A484E,E508R,D510K,K512Y,E515Q,D570M (Bacillus phage phi29?). Conditions: conversion of modified dNTPs; 5 mM Mg(OAc)2.
Data set [5] deals with H022 Phi29 DNA polymerase Y224K,E239G,V250I,L253A,E375Y,K379S,A437G,A484E,E508R,D510K,K512Y,E515Q,D570M (Bacillus phage phi29?). Conditions: conversion of modified dNTPs; 5 mM Mg(OAc)2.
The test system of data set [6] is H034 Phi29 DNA polymerase K143D,Y224K,E239G,V250I,L253A,E375Y,A437G,A484E,E508R,D510K,K512Y,E515Q,D570M (Bacillus phage phi29?). The following applies: conversion of modified dNTPs; 5 mM Mg(OAc)2.
The test system of data set [7] is H019 Phi29 DNA polymerase Y224K,E239G,V250I,L253A,E375A,A437G,A484E,E508R,D510K,K512Y,E515Q,D570M (Bacillus phage phi29?). The following applies: conversion of modified dNTPs; 5 mM Mg(OAc)2.
Data set [8] deals with H004 Phi29 DNA polymerase Y224K,E239G,V250I,L253A,E375Y,A437G,A484E,E508R,D510K,K512Y,E515Q,D570M (Bacillus phage phi29?). The following applies: conversion of modified dNTPs; 100 pM primer/template, 300 pM protein, 5 mM Mg(OAc)2, 10 mM DTT, 30 min; Table 5 gives 19.9%.
The subject of data set [9] is G075 Phi29 DNA polymerase K143D K143D (Bacillus phage phi29?). As to the kind of experiment: cleavage_in_vitro. Conditions: RCA +++.
For data set [10], the system named is H020 Phi29 DNA polymerase Y224K,E239G,V250I,L253A,E375S,A437G,A484E,E508R,D510K,K512Y,E515Q,D570M (Bacillus phage phi29?). As to the kind of experiment: cleavage_in_vitro. The following applies: RCA ++++.
The test system of data set [11] is H022 Phi29 DNA polymerase Y224K,E239G,V250I,L253A,E375Y,K379S,A437G,A484E,E508R,D510K,K512Y,E515Q,D570M (Bacillus phage phi29?). As to the kind of experiment: cleavage_in_vitro. Conditions: RCA ++++.
For data set [12], the system named is H004 Phi29 DNA polymerase Y224K,E239G,V250I,L253A,E375Y,A437G,A484E,E508R,D510K,K512Y,E515Q,D570M (Bacillus phage phi29?). The data set can be described thus: cleavage_in_vitro. Conditions: primer hydrolysed in 2 min.
The subject of data set [13] is G077 Phi29 DNA polymerase D145A D145A (Bacillus phage phi29?). The data set can be described thus: cleavage_in_vitro. Conditions: RCA +++.
Data set [14] deals with H019 Phi29 DNA polymerase Y224K,E239G,V250I,L253A,E375A,A437G,A484E,E508R,D510K,K512Y,E515Q,D570M (Bacillus phage phi29?). As to the kind of experiment: cleavage_in_vitro. Conditions: RCA ++++.
The test system of data set [15] is G087 Phi29 DNA polymerase Y148L Y148L (Bacillus phage phi29?). The data set can be described thus: cleavage_in_vitro. Conditions: RCA +++.
Data set [16] relates to G059 Phi29 DNA polymerase E14I E14I (Bacillus phage phi29?). The data set can be described thus: cleavage_in_vitro. The following applies: RCA +++.

Residue numbers refer to the chain shown, from its start. Read-outs that look alike come from different tables or passages of the source.

Consider “circular DNA template with primer (single molecule sequencing)”, for which the figures for the activity in data set [1], in [2] and in [3] were 342 bases, 282 bases and 436 bases, respectively.
As to “primer/template (modified dNTP conversion)”, the activity in data set [4] was found to be 46.2%; in data set [5], 32.5%; in [6], 5.4%; in [7], 22.2%; in data set [8] it was 48.4%.
In the case of “fluorescent-labelled primer (exonuclease substrate)”, the activity in data set [9] was 37.5%; in [10] it was 56.5%; in [11], 62.2%; in data set [12], 38%; in data set [13], 68.6%; in data set [14] it was 39.1%. Further, the activity is 34.5% in [15] and 52.6% in data set [16].

Source of the values: patent US20240309340.
